Five molecules from paper doi:10.1101/2025.02.17.637997, “Phosphorylation-State Modulated Binding of HSP70: Structural Insights and Compensatory Protein Engineering” (bioRxiv, 2025) can be followed below.

Assay [1] deals with T1, CHIP-TPR (21–154) (UniProt Q9UNE7 21-154).
T1 construct: also called extended TPR domain of CHIP
T1 sequence (looked up): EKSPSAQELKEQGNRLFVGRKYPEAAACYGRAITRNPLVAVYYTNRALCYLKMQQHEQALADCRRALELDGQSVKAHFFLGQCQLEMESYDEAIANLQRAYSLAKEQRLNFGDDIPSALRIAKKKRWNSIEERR
Briefly: biolayer interferometry, peptide on sensor. To be noted: reference: biotin-EEVD peptide; sites T636.

Another assay addresses CHIP (UniProt Q9UNE7). Briefly: fluorescence polarization titration. To be noted: reference: unphosphorylated EEVD peptide; sites T636. (In general: Polarisation of emitted light reports the rotation of a fluorescent probe.)
The test system of assay [2] is LgBiT-HSP70 T636A/D. In words: NanoBiT live-cell interaction, HEK-293, CHIP variants with LgBiT-HSP70. It counts as cell-based. To be noted: compared with CHIP-WT, Fig. 1E. How it is done: (§1) HEK293 and COS-7 cells were acquired from the UNC Lineberger Comprehensive Cancer Center Tissue Culture Facility. Cultures were maintained in Dulbecco’s Modified Eagle Medium with 10% fetal bovine serum at 37 °C and 5% CO2. Using the manufacturers’ instructions, X-tremeGENE 9 was used to transfect cells with plasmid DNA except for NanoBiT constructs, in which case we used Lipofectamine 3000 (Thermo Fisher Scientific). Where indicated, twenty-four hours post-transfection, cells were treated with 20 μM MG-132 (Selleck Chemicals) for 6 h or 100 μM cycloheximide (Sigma-Aldrich) for the stated duration.
(§2) NanoBiT Protein: Protein Interaction System (Promega) was used to measure protein-protein interaction data following the manufacturer’s instructions. As previously described, LgBiT-HSP70 and SmBiT-CHIP construct interactions were used as positive controls ([22]). Twenty-four hours post-transfection, the cells were collected, replated in 96-well clear bottom white-sided tissue culture plates, and maintained at 37 °C and 5% CO2 for 45 min. Nano-Glo Live Cell Reagent (Promega) was added, and luminescence was measured using a CLARIOstar microplate reader over 20 minutes. The total area under the maximum luminescence curve was quantified and used to compare changes in HSP70-CHIP interactions relative to the WT-WT conditions.

For assay [3], the system named is LgBiT-HSP70 T636A/D. In words: NanoBiT live-cell interaction, COS-7, CHIP variants with LgBiT-HSP70. It counts as cell-based. As to conditions: Fig. 1F. The protocol: as §1, §2
A further assay has as its system HSP70. Briefly: Co-immunoprecipitation of CHIP variants with HSP70, COS-7. In kind it is cell-based. As to conditions: Co-IP of MYC-CHIP, Fig. 1I. How it is done:
Samples were collected in a lysis buffer composed of 50 mM Tris-HCl (pH 7.4), 150 mM NaCl, 2 mM EDTA, and 1% Triton X-100, supplemented with 1X Halt protease and phosphatase inhibitor (Thermo Scientific). The samples were then sonicated and combined with Laemmli sample buffer (Bio-Rad). The lysates were resolved on 4–15% TGX Stain-Free gels (Bio-Rad) and transferred to PVDF membranes (Bio-Rad). The membranes were blocked in 5% milk and incubated with primary antibodies (Table S3) overnight at 4°C. Following this, HRP-conjugated secondary antibodies (Cell Signaling Technology) were applied. Detection was performed using Lumigen ECL Ultra (Lumigen, tma-100), and the blots were imaged with the ChemiDoc Imaging System (BioRad).
Ezview™ Red Anti-c-Myc Affinity Gel Beads (Sigma-Aldrich) were used for co-immunoprecipitation of myc-tagged proteins. Proteins were eluted via boiling before western blot analysis.

The next assay addresses T2, CHIP-G132N (Homo sapiens, UniProt Q9UNE7, G132N).
T2 construct: Recombinant CHIP-TPR constructs were recombinantly expressed using the pHis//2 CHIP-TPR (21–154) plasmid; His; made in house
T2 sequence (Q9UNE7 21-154 G132N): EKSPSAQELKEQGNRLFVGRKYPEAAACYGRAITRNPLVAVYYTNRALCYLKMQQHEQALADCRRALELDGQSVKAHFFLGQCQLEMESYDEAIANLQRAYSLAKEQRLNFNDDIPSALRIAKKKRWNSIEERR
In words: Biolayer interferometry, CHIP-G132N TPR. It counts as binding. To be noted: BLI; CHIP-G132N TPR; Fig. 2E. How it is done: Bio-layer interferometry measured peptide binding using a BLItz instrument (FortéBio, Sartorius) with streptavidin (SA) sensors. Biotin-EEVD and biotin-pEEVD were solubilized in 20 mM HEPES, 150 mM NaCl, pH 7.0. Affinity measurements were made using the advanced kinetic protocol within the BLItz Pro system software. Biosensors were hydrated for ten minutes in assay buffer comprising 20 mM HEPES, 150 mM NaCl, 5 mM β-mercaptoethanol, pH 7.2. For each affinity measurement, a new, hydrated biosensor was placed on the BLItz tip, and the “Initial Baseline” step was completed by incubation for 30 seconds in 500 μl assay buffer in an opaque black microcentrifuge tube (Argos Technologies). Peptides were loaded during the “Loading Step” by incubating the tip in 4 μl of either peptide for 60 seconds. The “Baseline step” was then conducted by incubation for 30 seconds in 500 μl assay buffer in an opaque black microcentrifuge tube. The “Association step” was performed by incubating the tip in 4 μl of the appropriate TPR protein construct, at protein concentrations of 1 to 25 μM, in assay buffer in an opaque black microcentrifuge tube for 120 seconds. […] Affinities (Kd) were calculated by the BLItz Pro software as Kd=koff/kon, where koff and kon were determined by individual fits to the “dissociation step” and “association step,” respectively, for each run.
A general note: BLI is a label-free optical method that tracks binding on a fibre tip over time.

In a further assay the test system is HSC70. In words: Cell-free ubiquitination of HSC70 by CHIP. It counts as biochemical, human. To be noted: 100 nM Uba1, 1 μM UBE2D2, 200 nM Hsc70, 100 μM Ub, 1 μM CHIP, pH 8.0, 15 min, room temperature; three experiments; p = 0.0774; Fig. 1K. The protocol:
Ubiquitination assays were conducted using recombinant human HSC70, fluorescently tagged on its N-terminus. All assay components except ubiquitin were premixed on ice in a BSA-containing buffer (20 mM HEPES, pH 8.0; 200 mM NaCl; 0.5 mg/mL BSA). Reactions were initiated by adding ubiquitin and were allowed to proceed at room temperature unless specified otherwise. The reactions contained a final concentration of 100 nM Uba1, 1 μM UBE2D2, 200 nM Hsc70, 100 μM Ub, 5 mM MgCl2-ATP, and 1 μM CHIP. The reactions proceeded for 15 minutes before being quenched with SDS loading buffer. The quenched samples were separated by molecular weight via SDS-PAGE in non-reducing conditions using GenScript SurePAGE 4–12% gels. The CHIP-dependent ubiquitination of Hsc70 was visualized and quantified through fluorescent scanning on an Amersham Typhoon 5.

Assay [4] has as its target recombinant full-length CHIP-K30A (UniProt Q9UNE7 1-303, K30A). Briefly: FP.
In assay [5] the target is T3, CHIP domain fragment: TPR with the coiled-coil domain.
T3 chain: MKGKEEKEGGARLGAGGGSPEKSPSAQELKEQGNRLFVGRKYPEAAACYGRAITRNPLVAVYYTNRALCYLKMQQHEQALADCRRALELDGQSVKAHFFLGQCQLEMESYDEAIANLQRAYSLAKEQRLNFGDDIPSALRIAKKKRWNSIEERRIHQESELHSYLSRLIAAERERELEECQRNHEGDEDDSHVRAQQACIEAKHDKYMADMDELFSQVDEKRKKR
Briefly: FP.

Assay [6] concerns the target T4, recombinant full-length CHIP-WT (UniProt Q9UNE7 1-303).
T4 chain: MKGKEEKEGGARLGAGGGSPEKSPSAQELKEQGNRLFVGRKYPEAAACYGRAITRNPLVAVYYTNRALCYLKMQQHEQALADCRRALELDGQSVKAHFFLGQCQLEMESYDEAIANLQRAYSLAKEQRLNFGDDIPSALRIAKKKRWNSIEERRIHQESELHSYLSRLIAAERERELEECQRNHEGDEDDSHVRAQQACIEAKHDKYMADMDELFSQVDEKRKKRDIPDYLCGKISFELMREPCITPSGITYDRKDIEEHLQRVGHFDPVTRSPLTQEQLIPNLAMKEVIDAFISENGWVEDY
In words: FP.

Assay [7] deals with recombinant full-length CHIP-G132N (UniProt Q9UNE7 1-303, G132N). In words: FP.
For assay [8], the target named is T5, recombinant full-length CHIP-WT (UniProt Q9UNE7 1-303).
T5 sequence (looked up): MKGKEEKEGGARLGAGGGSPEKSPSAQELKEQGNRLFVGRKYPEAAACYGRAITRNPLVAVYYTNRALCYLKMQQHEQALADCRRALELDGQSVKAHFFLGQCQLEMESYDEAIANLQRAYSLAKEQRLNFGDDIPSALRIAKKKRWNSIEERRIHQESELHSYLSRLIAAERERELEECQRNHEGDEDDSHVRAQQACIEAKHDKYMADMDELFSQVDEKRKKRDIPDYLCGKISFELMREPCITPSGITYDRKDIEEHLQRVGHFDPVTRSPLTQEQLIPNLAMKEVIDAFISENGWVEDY
Briefly: fluorescence polarisation; 20 nM N-terminally FITC-labelled peptide, recombinant CHIP constructs at increasing concentrations, 30 minutes at room temperature; one site/total binding fit with Bmax constrained to 100. As to conditions: both partners purified.

In assay [9] the target is T6, recombinant full-length CHIP-G132N (UniProt Q9UNE7 1-303, G132N).
T6 construct: CHIP, full-length recombinant protein with G132N
T6 sequence (looked up): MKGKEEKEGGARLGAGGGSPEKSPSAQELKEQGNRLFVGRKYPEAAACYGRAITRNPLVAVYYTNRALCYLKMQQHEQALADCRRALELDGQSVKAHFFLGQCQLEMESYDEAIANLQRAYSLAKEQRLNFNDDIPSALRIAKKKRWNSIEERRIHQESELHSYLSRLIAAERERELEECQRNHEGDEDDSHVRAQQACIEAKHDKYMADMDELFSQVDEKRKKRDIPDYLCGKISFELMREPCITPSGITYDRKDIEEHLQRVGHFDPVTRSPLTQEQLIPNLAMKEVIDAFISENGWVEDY
Described as above. To be noted: both partners purified.

The target of assay [10] is T1, CHIP-TPR (21–154). The assay is described as above. To be noted: both partners purified.

Values joined by “and” are separate entries in the source; they are usually repeats but may differ in a detail not shown here. Identical values can stand only once. “Also recorded” adds a separate entry of the source. Ends that are not written are not given here. * marks the point of attachment. FITC = O=C1OC2(c3ccc(O)cc3Oc3cc(O)ccc32)c2ccc(NC(=S)*)cc21; Ahx = NCCCCCC(=O)O

Consider “HSP70 C-terminal tail (from UniProt P0DMV8) biotin-pEEVD (pT636) peptide”, for which, in the assay with CHIP-TPR (21–154) [1], the fold change result is recorded as “weaker”.

Take “HSP70 C-terminal tail (from UniProt P0DMV8) pEEVD (pT636) peptide”: the fold change entry in the assay with CHIP was “weaker”.

B1: CHIP-K30A: substitution known to disrupt the ability of CHIP's TPR domain to bind EEVD motifs (protein)
chain: MKGKEEKEGGARLGAGGGSPEKSPSAQELAEQGNRLFVGRKYPEAAACYGRAITRNPLVAVYYTNRALCYLKMQQHEQALADCRRALELDGQSVKAHFFLGQCQLEMESYDEAIANLQRAYSLAKEQRLNFGDDIPSALRIAKKKRWNSIEERRIHQESELHSYLSRLIAAERERELEECQRNHEGDEDDSHVRAQQACIEAKHDKYMADMDELFSQVDEKRKKRDIPDYLCGKISFELMREPCITPSGITYDRKDIEEHLQRVGHFDPVTRSPLTQEQLIPNLAMKEVIDAFISENGWVEDY
In the case of B1, the “luminescence of CHIP variant with HSP70-T636A/D” value with LgBiT-HSP70 T636A/D [2] is given as “robust decrease in luminescence”. Also, the “luminescence of CHIP variant with HSP70 constructs” value with LgBiT-HSP70 T636A/D [3] is “limited luminescence detected”. In addition, in the assay with HSP70, the “co-precipitation of HSP70 by CHIP variant” value is given as “failed to precipitate appreciable amounts of HSP70 construct above background levels”.

B2: CHIP-G132N: engineered CHIP variant to restore binding affinity to phosphorylated HSP70 (protein)
chain: MKGKEEKEGGARLGAGGGSPEKSPSAQELKEQGNRLFVGRKYPEAAACYGRAITRNPLVAVYYTNRALCYLKMQQHEQALADCRRALELDGQSVKAHFFLGQCQLEMESYDEAIANLQRAYSLAKEQRLNFNDDIPSALRIAKKKRWNSIEERRIHQESELHSYLSRLIAAERERELEECQRNHEGDEDDSHVRAQQACIEAKHDKYMADMDELFSQVDEKRKKRDIPDYLCGKISFELMREPCITPSGITYDRKDIEEHLQRVGHFDPVTRSPLTQEQLIPNLAMKEVIDAFISENGWVEDY
In the case of B2, the “effect on binding affinity towards phosphorylated EEVD tail” value with CHIP-G132N is listed as “rescued the binding affinity”. In the assay with LgBiT-HSP70 T636A/D [2], the “luminescence of CHIP variant with HSP70-T636A/D” value is listed as “lower luminescence”. Also, the “co-precipitation of HSP70 by CHIP variant” value in the assay on HSP70 is on record as “did not override the effect of the HSP70-T636D phosphomimetic”. In addition, the “ubiquitination of HSC70” value in the assay on HSC70 is reported as “not different; also recorded: trend towards decreased ligase activity”.

B3: N-FITC-Ahx-GSGPTIEEVD (peptide)
peptide: {FITC-Ahx}-GSGPTIEEVD
notes: C-terminal tail of HSP70; tracer of the fluorescence polarisation assay; also called HSP70 peptide tracer; source: synthetic peptide (Lifetein or Genscript)
By Kd is commonly meant the equilibrium constant for the complex coming apart. Turning to B3, the Kd in [4] is 66 µM; in assay [5], 28 µM; in [6], 6.5 µM and 7 µM; in assay [7], 9.2 µM. For the same molecule, the binding result (in assay [8]; in assay [9]; with CHIP-TPR (21–154) [10]) was “binds” throughout.
